Laboratory results published in patent EP2506881B1.

Columns and labels:
Trop-2 (human) [1] = target: Trop-2 (human) (UniProt P09758); experiment: cell-based or functional assay
Trop-2 (human) [2] = target: Trop-2 (human) (UniProt P09758); experiment: ELISA on Trop-2-expressing cell lines PC-3 and Calu-3
Trop-2 (human) [3] = target: Trop-2 (human) (UniProt P09758); experiment: ELISA on Trop-2-expressing cell lines PC-3 and Calu-3, apparent KD

Chain of UniProt P09758 (P09758 27-323): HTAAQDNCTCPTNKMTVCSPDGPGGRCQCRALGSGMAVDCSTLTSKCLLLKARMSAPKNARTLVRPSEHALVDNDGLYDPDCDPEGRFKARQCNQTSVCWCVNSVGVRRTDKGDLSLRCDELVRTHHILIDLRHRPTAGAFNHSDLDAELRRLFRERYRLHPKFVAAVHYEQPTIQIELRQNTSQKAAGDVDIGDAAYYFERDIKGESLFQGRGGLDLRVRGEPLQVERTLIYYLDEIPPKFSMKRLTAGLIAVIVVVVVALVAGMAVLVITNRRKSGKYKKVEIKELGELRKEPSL

## 2L-Rap(Q)-hRS7 (from UniProt P22069 1-104)
Trop-2 (human) [1]
  EC50, MTS cell proliferation assay, Calu-3 cells: 8.5 nM
  EC50, MTS cell proliferation assay, MDA-MB-468 cells: 3.8 nM
  EC50, MTS cell proliferation assay, ME-180 cells: 1.5 nM
  EC50, MTS cell proliferation assay, T-47D cells: 2 nM
Trop-2 (human) [2]
  fold of apparent KD against hRS7: 2 fold
Trop-2 (human) [3]
  Kd: 0.28 nM

B1: humanized RS7 anti-Trop-2 antibody (hRS7 IgG) (antibody, INN chains, looked up, V domains shown)
VH: QVQLQQSGSELKKPGASVKVSCKASGYTFTNYGMNWVKQAPGQGLKWMGWINTYTGEPTYTDDFKGRFAFSLDTSVSTAYLQISSLKADDTAVYFCARGGFGSSYWYFDVWGQGSLVTVSS
VL: DIQLTQSPSSLSASVGDRVSITCKASQDVSIAVAWYQQKPGKAPKLLIYSASYRYTGVPDRFSGSGSGTDFTLTISSLQPEDFAVYYCQQHYITPLTFGAGTKVEIK
modifications: IgG
Trop-2 (human) [3]
  Kd: 0.14 nM
